Experimental data from the supplement of paper PMC9170038.

System: MS2 coat protein
Experiment: apparent KD of MS2 coat protein; designed switch direction (-1 OFF switch, 1 ON switch): 1; higher = weaker reporter binding
Outline: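 An oligonucleotide input, 200 uM small-molecule ligand, or no input was present during titration of SNAP-549-labelled MS2 coat protein, which was doubled from 0.7 or 1.5 nM to 3 µM. Designed RNA switches had been transcribed on Illumina chips by stalled E. coli RNA polymerase. Apparent KD per design is the median over clusters of curves fitted to normalised cluster fluorescence.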

[1] = input ligand: microRNA oligo, concentration not stated
[2] = Eterna round: R95, input ligand: FMN 200 uM
[3] = Eterna round: R95, input ligand: microRNA oligo, concentration not stated
[4] = Eterna round: R95, input ligand: none

| Sequence | apparent KD of MS2 coat protein (input ligand: FMN 200 uM) [nM] | apparent KD of MS2 coat protein [1] [nM] | apparent KD of MS2 coat protein (input ligand: none) [nM] | apparent KD of MS2 coat protein [2] [nM] | apparent KD of MS2 coat protein [3] [nM] | apparent KD of MS2 coat protein [4] [nM] |
| --- | --- | --- | --- | --- | --- | --- |
| GCUCGUGGUAUUGUCUACAUGAGGAUCACCCAUGUAGGUGCGGAGGAUAUUUACGUGUCUCAUGUAGAGAAGGCCGUCACGAGC [SameState NG3 #97] (Eterna round: R96, puzzle: Same State NG 3) | 52.2 | 190 | 297 | – | – | – |
| GCUGCGAUUAACGCCUACAUGAGGAUCACCCAUGUAUGUAGGCAGGAUAUCGUUUGCUUUGCAAACGAGAAGGGCUGUAGUAGC [salish99_SSNG3_R04_004] (Eterna round: R96, puzzle: Same State NG 3) | 39.4 | 68.4 | 86.9 | – | – | – |
| GCUUGCGGCGCAGGAUAUGGGUGCCUGUACAUGAGGAUCACCCAUGUUAAGGGACGGAAAACGAACCAGAAGGGCGUCGCGAGC [Inraeded] (Eterna round: R96, puzzle: Same State NG 2) | 84.9 | 218 | 1280 | – | – | – |
| GGAAAGAGGUUAGGAUAUGCAUGUUUGGGACAUGAGGAUCACCCAUGUAAUAGAAGAAAUCUACAGUAGAAGGGACAAGGAAGG [AK SSNG2-V2-6.1] (Eterna round: R96, puzzle: Same State NG 2) | 152 | 72.9 | 170 | – | – | – |
| GGAACACAUGAGGAUCACCCAUGUCAAGGAGGUCGAGGAUAUAGGAAAAAAAAAAAAAAAUUAGAAGGUGAGGAGG [V1] (Eterna round: R96, puzzle: Same State 1) | 270 | 166 | 275 | – | – | – |
| GGAAUAUUUACAGGAUAUGAUUUGUAAAUUCGAUCAGAAGGGUAGAUGUCUUACACGAUUUGUUACAUGAGGAUCACCCAUGUU [SameState NG1 #10] (Eterna round: R96, puzzle: Same State NG 1) | 31 | 81.9 | 86.3 | – | – | – |
| GGAGAACAUGAGGAUCACCCAUGUAGGCGUUAGCUAGGAUAUGCGGGAAGGAAGAGAGAAGCAGAAGGAGUAGGUA [JR_SS1_Sub031] (puzzle: Same State 1) | – | – | – | 39.6 | 64.4 | 80 |
| GGAGAGAAGUGAGGAUAUGCAUGGAAGACACAUGAGGAUCACCCAUGUGGGAGGGAGACCGGGAGGUAGAAGGCACUGGGAAGA [AK SSNG2-V2-25.1] (Eterna round: R96, puzzle: Same State NG 2) | 425 | 42.3 | 74.2 | – | – | – |
| GGAGCCAAGGCAGGAUAUUCAAAACAUGAGGAUCACCCAUGUGGGUAAAAGGCCAGAAGGCCUUGGGAGAAGGGCCAUGGCUCG [Xeonanis - 13 mod12] (Eterna round: R96, puzzle: Same State NG 2) | 11.5 | 9.02 | 15.8 | – | – | – |
| GGAGCCGGCACUGAGGAUAUUCAUAUUAAAACAUGAGGAUCACCCAUGUAGGCCAGAAGGCCUUGGGAGAAGGCAGGUCGACUCG [Diqureveri] (Eterna round: R96, puzzle: Same State 2) | 24.5 | 159 | 209 | – | – | – |
| GGAGCCGGCACUGAGGAUAUUCAUAUUAAAACAUGAGGAUCACCCAUGUAGGCCAGAAGGCCUUGGGAGAAGGCGGGUCGACUCG [Diqureveri - 1] (puzzle: Same State 2) | – | – | – | 29.7 | 523 | 371 |
| GGAGCCGGCACUGAGGAUAUUCGUAUUAAAACAUGAGGAUCACCCAUGUAGGCCAGAAGGCCUUGGGAGAAGGCAGGUCGACUCG [Diqureveri - 2] (puzzle: Same State 2) | – | – | – | 17.2 | 38.9 | 59.7 |
| GGAGCCGGCCUAGGAUAUUUCAUAAAUUAACAUGAGGAUCACCCAUGUAGGCCAGAAGGCCUUGGGAAGAAGGAGGUCGGCUCC [Loop Effect - U27,U28] (Eterna round: R96, puzzle: Same State NG 2) | 16.8 | 37.7 | 51.4 | – | – | – |
| GGAGCCGGCCUAGGAUAUUUCAUAACAAAACAUGAGGAUCACCCAUGUAGGCCAGAAGGCCUUGGGAAGAAGGAGGUCGGCUCC [Loop Effect - C26] (Eterna round: R96, puzzle: Same State NG 2) | – | 18.9 | – | – | – | – |
| GGAGCCGGUACUGAGGAUAUUCAUAUUAAAACAUGAGGAUCACCCAUGUAGGCCAGAAGGCCUUGGGAGAAGGCAGGCCAGCUCG [Atgexeedri - 4] (Eterna round: R96, puzzle: Same State 2) | 24.7 | 177 | 268 | – | – | – |
| GGAGCCGGUACUGAGGAUAUUCAUAUUAAAACAUGAGGAUCACCCAUGUAGGCCAGAAGGCCUUGGGAGAAGGCAGGCCAGCUCG [Atgexeedri - 4] (puzzle: Same State 2) | – | – | – | 20.2 | 270 | 458 |

| Sequence | apparent KD of MS2 coat protein (input ligand: FMN 200 uM) [nM] | apparent KD of MS2 coat protein [1] [nM] | apparent KD of MS2 coat protein (input ligand: none) [nM] | apparent KD of MS2 coat protein [2] [nM] | apparent KD of MS2 coat protein [3] [nM] | apparent KD of MS2 coat protein [4] [nM] |
| --- | --- | --- | --- | --- | --- | --- |
| GGAGCCGGUACUGAGGAUAUUCAUAUUAAAACAUGAGGAUCACCCAUGUGGGCCAGAAGGCCUUGGGAGAAGGCAGACCAGCUCG [Atgexeedri - 3] (Eterna round: R96, puzzle: Same State 2) | 18.2 | 108 | 156 | – | – | – |
| GGAGCCGGUACUGAGGAUAUUCAUAUUAAAACAUGAGGAUCACCCAUGUGGGCCAGAAGGCCUUGGGAGAAGGCAGACCAGCUCG [Atgexeedri - 3] (puzzle: Same State 2) | – | – | – | 15.4 | 115 | 177 |
| GGAUGAUUGACAGGAUAUCAUUUGUAAAUUCGUUGAGAAGGGUCGAUUACUUACACGACGUGUUACAUGAGGAUCACCCAUGUU [SameState NG1 #4] (Eterna round: R96, puzzle: Same State NG 1) | 117 | 101 | 185 | – | – | – |
| GGCAAUAUCACAGGAUAUUGGAAAGGAAGUGUACAAGAAGGGUGAUAGGGCCUCAGCAACAUGAGGAUCACCCAUGUACUGAGC [PowerStrip SSNG 1.10] (Eterna round: R96, puzzle: Same State NG 1) | 62.6 | 13.5 | 40.8 | – | – | – |
| GGCUGCGUUGUGAAGGAUAUCCGCGUCUGGACAUGAGGAUCACCCAUGUAUGCUUGGAUCAUGCCGGAGAAGGUCACGAAUGAUU [JR_SS002_Sub1214] (Eterna round: R96, puzzle: Same State 2) | 17 | 19.9 | 32.9 | – | – | – |
| GGGCCAGCCUGUGCUGGGCCUUAGCAUGCACAUGAGGAUCACCCAUGUCGUGUACAUGCUUUUUGCUCGUCUUUAAA [Photon Torp-09] (puzzle: Sensor for hsa-mir-208a) | – | – | – | 79.2 | 15.6 | 93.2 |
| GGGCCAGCCUGUGCUGGGCUUUAGCAUGUACAUGAGGAUCACCCAUGUCGUGUACAUGCUUUUUGCUCGUCUUUAAA [Photon Torp-07] (puzzle: Sensor for hsa-mir-208a) | – | – | – | 70.5 | 22.5 | 100 |
| GGGUGUGGAAGGAAAGACAGGGAAAGGAAACAUGAGGAUCACCCAUGUGAAGGAAGAAAGGGAGCUCGUCUUAUAAG [JR_SHM208A_Sub002] (puzzle: Sensor for hsa-mir-208a) | – | – | – | 26 | 27.6 | 35 |
| GGUACCAUCACAGGAUAUGCUAUCCUUUGGGUAGCAGAAGGGUGAUACAUGAGGAUCACCCAUGUGGUGCCAGGGCGUGAGCCC [JL SSNG1 1.91] (Eterna round: R96, puzzle: Same State NG 1) | 901 | 44.5 | 331 | – | – | – |
| GGUAUCUCCCGUGAGGAUAUGCGGCGUAGAACAUGAGGAUCACCCAUGUCCUUCGAAUGGGUUACGCAGAAGGCACGACGGUACC [Robot Leg #2] (puzzle: Same State 2) | – | – | – | – | 24.5 | – |
| GGUCCAGCCUGAGCUGGACAAAAGCAUGUACAUGAGGAUCACCCAUGUCAUGUACAAGCUUUUUGCUCGUCUAAAGG [Mat - hsa-mir-208a - 92] (puzzle: Sensor for hsa-mir-208a) | – | – | – | 726 | 23.8 | 586 |
| GGUCCAGCCUGAGCUGGACAAAAGCAUGUACAUGAGGAUCACCCAUGUCAUGUACAAGUUUUUUGCUCGUCUUAAAA [JL mod - D87 - 12] (puzzle: Sensor for hsa-mir-208a) | – | – | – | 35.3 | 10.6 | 38.7 |
| GGUCCAGCCUGAGCUGGACAAAAGCAUGUACAUGAGGAUCACCCAUGUUCAUGUACAAGCUUUUUGCUCGUCUUGCA [salish99_208a_r3_110x] (puzzle: Sensor for hsa-mir-208a) | – | – | – | 639 | 15.5 | 706 |
| GGUCCAGCCUGAGCUGGACGAAAGUAUGUACAUGAGGAUCACCCAUGUCAUGUAUAAGUUUUUUGUUUGUCUUGAAA [Sensorship 2 - Jieux - Sensor for hsa-mir-208a] (puzzle: Sensor for hsa-mir-208a) | – | – | – | 22.4 | 11.2 | 22.7 |
| GGUCUAGUUACAGGAUAUGCAUUGCUUUGCGAUGCAGAAGGGUGGUAACAUGAGGAUCACCCAUGUGGGCCAGCGCAAAAGCGC [JL SSNG1 cdp] (Eterna round: R96, puzzle: Same State NG 1) | 981 | 661 | 1440 | – | – | – |
